Data published in IntAct's records for PubMed 23230146.

B1: Autophagy-related protein 18 (Saccharomyces cerevisiae), P43601 (parent)
chain: MSDSSPTINFINFNQTGTCISLGTSKGFKIFNCEPFGKFYSEDSGGYAIVEMLFSTSLLALVGIGDQPALSPRRLRIINTKKHSIICEVTFPTSILSVKMNKSRLVVLLQEQIYIYDINTMRLLHTIETNPNPRGLMAMSPSVANSYLVYPSPPKVINSEIKAHATTNNITLSVGGNTETSFKRDQQDAGHSDISDLDQYSSFTKRDDADPTSSNGGNSSIIKNGDVIVFNLETLQPTMVIEAHKGEIAAMAISFDGTLMATASDKGTIIRVFDIETGDKIYQFRRGTYATRIYSISFSEDSQYLAVTGSSKTVHIFKLGHSMSNNKLDSDDSNMEEAAADDSSLDTTSIDALSDEENPTRLAREPYVDASRKTMGRMIRYSSQKLSRRAARTLGQIFPIKVTSLLESSRHFASLKLPVETNSHVMTISSIGSPIDIDTSEYPELFETGNSASTESYHEPVMKMVPIRVVSSDGYLYNFVMDPERGGDCLILSQYSILMD

Variants of: B1
Settings: with atg2_yeast ATG2, P53855
Sequence of atg2_yeast ATG2, P53855 (P53855 whole entry): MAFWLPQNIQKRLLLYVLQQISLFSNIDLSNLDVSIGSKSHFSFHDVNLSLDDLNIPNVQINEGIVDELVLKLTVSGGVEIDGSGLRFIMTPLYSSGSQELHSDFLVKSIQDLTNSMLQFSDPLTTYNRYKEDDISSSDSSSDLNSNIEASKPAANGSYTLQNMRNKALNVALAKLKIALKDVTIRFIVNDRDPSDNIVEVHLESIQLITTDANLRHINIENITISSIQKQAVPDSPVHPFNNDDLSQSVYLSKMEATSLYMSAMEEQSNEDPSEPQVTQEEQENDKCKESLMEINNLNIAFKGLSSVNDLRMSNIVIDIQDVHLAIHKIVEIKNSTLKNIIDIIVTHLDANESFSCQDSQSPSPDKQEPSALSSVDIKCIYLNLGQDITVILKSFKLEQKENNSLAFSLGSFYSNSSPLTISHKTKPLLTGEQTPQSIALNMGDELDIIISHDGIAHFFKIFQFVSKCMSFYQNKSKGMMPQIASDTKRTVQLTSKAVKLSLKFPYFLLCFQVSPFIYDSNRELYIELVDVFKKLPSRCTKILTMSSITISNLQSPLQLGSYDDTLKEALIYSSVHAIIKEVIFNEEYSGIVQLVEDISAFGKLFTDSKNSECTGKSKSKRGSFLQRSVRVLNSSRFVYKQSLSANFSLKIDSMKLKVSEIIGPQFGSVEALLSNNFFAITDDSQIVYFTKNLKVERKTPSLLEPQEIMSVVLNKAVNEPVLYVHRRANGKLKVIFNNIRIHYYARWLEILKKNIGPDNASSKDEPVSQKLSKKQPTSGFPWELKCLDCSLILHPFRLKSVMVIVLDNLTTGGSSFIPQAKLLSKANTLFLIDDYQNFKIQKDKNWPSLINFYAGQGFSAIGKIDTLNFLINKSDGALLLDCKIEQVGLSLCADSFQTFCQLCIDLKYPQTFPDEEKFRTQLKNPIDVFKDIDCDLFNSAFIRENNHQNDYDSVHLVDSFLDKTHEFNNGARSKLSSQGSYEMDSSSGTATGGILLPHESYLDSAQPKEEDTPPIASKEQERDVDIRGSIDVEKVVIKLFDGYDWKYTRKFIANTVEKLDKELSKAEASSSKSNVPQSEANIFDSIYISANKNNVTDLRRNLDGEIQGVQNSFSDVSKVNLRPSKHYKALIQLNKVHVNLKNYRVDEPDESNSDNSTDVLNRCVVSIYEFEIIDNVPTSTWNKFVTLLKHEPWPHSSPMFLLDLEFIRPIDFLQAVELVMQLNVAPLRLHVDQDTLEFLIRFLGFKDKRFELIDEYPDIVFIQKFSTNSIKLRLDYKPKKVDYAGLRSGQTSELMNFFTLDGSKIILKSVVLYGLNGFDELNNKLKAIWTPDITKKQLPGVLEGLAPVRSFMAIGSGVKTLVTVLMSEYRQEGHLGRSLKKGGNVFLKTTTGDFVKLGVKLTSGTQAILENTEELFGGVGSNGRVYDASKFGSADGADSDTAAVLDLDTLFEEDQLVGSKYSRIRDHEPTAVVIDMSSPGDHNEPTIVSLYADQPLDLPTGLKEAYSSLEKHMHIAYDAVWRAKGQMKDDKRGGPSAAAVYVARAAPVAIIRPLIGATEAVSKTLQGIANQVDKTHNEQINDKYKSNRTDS

| Variant | effect of a mutation on the interaction |
| --- | --- |
| MSDSSPTINFINFNQTGTCISLGTSKGFKIFNCEPFGKFYSAAAGGAAIVEMLFSTSLLALVGIGDQPALSPRRLRIINTKKHSIICEVAAAAAILSVKMNKSRLVVLLQEQIYIYDINTMRLLHTIETNPNPRGLMAMSPSVANSYLVYPSPPKVINSEIKAHATTNNITLSVGGNTETSFKRDQQDAGHSDISDLDQYSSFTKRDDADPTSSNGGNSSIIKNGDVIVFNLETLQPTMVIEAHKGEIAAMAISFDGTLMATASDKGTIIRVFDIETGDKIYQFRRGTYATRIYSISFSEDSQYLAVTGSSKTVHIFKLGHSMSNNKLDSDDSNMEEAAADDSSLDTTSIDALSDEENPTRLAREPYVDASRKTMGRMIRYSSQKLSRRAARTLGQIFPIKVTSLLESSRHFASLKLPVETNSHVMTISSIGSPIDIDTSEYPELFETGNSASTESYHEPVMKMVPIRVVSSDGYLYNFVMDPERGGDCLILSQYSILMD [E42A;D43A;S44A;Y47A;T90A;F91A;P92A;T93A;S94A] | disrupting interaction strength |

Variants of: B1
Settings: with atg2_yeast ATG2, P53855
Remark: another data set of the same source

| Variant | effect of a mutation on the interaction |
| --- | --- |
| MSDSSPTINFINFNQTGTCISLGTSKGFKIFNCEPFGKFYSEDSGGYAIVEMLFSTSLLALVGIGDQPALSPRRLRIINTKKHSIICEVAAAAAILSVKMNKSRLVVLLQEQIYIYDINTMRLLHTIETNPNPRGLMAMSPSVANSYLVYPSPPKVINSEIKAHATTNNITLSVGGNTETSFKRDQQDAGHSDISDLDQYSSFTKRDDADPTSSNGGNSSIIKNGDVIVFNLETLQPTMVIEAHKGEIAAMAISFDGTLMATASDKGTIIRVFDIETGDKIYQFRRGTYATRIYSISFSEDSQYLAVTGSSKTVHIFKLGHSMSNNKLDSDDSNMEEAAADDSSLDTTSIDALSDEENPTRLAREPYVDASRKTMGRMIRYSSQKLSRRAARTLGQIFPIKVTSLLESSRHFASLKLPVETNSHVMTISSIGSPIDIDTSEYPELFETGNSASTESYHEPVMKMVPIRVVSSDGYLYNFVMDPERGGDCLILSQYSILMD [T90A;F91A;P92A;T93A;S94A] | decreasing interaction strength |

Variants of: B1
Settings: with atg2_yeast ATG2, P53855
Remark: another data set of the same source

| Variant | effect of a mutation on the interaction |
| --- | --- |
| MSDSSPTINFINFNQTGTCISLGTSKGFKIFNCEPFGKFYSEDSGGYAIVEMLFSTSLLALVGIGDQPALSPRRLRIINTKKHSIICEVTFPTSILSVKMNKSRLVVLLQEQIYIYDINTMRLLHTIETNPNPRGLMAMSPSVANSYLVYPSPPKVINSEIKAHATTNNITLSVGGNTETSFKRDQQDAGHSDISDLDQYSSFTKRDDADPTSSNGGNSSIIKNGDVIVFNLETLQPTMVIEAHKGEIAAMAISFDGTLMATASDKGTIIRVFDIETGDKIYQFAAGTYATRIYSISFSEDSQYLAVTGSSKTVHIFKLGHSMSNNKLDSDDSNMEEAAADDSSLDTTSIDALSDEENPTRLAREPYVDASRKTMGRMIRYSSQKLSRRAARTLGQIFPIKVTSLLESSRHFASLKLPVETNSHVMTISSIGSPIDIDTSEYPELFETGNSASTESYHEPVMKMVPIRVVSSDGYLYNFVMDPERGGDCLILSQYSILMD [R285A;R286A] | disrupting interaction strength |
